Laboratory results taken from paper PMC5492076, “β-Cyanoalanine Synthases and Their Possible Role in Pierid Host Plant Adaptation” (Insects, 2017).

Tests used:
Assay in all cases: colorimetric sulfide formation, Michaelis-Menten fit
[1] = substrate: N[C@@H](CS)C(=O)O; type: biochemical, Colias croceus; conditions: 6 mM KCN, 20 µM pyridoxal-5'-phosphate, Tris-HCl pH 8.5, 31 °C, 10 min
Excerpt: colorimetric sulfide formation, Michaelis-Menten fit on CcBSAS2

[2] = substrate: N[C@@H](CS)C(=O)O; type: biochemical, Colias croceus; conditions: 6 mM KCN, 20 µM pyridoxal-5'-phosphate, Tris-HCl pH 8.5, 31 °C, 10 min; remark: listed apart in the source
Excerpt: colorimetric sulfide formation, Michaelis-Menten fit on CcBSAS3

[3] = substrate: N[C@@H](CS)C(=O)O; type: biochemical, Gonepteryx rhamni; conditions: 6 mM KCN, 20 µM pyridoxal-5'-phosphate, Tris-HCl pH 8.5, 31 °C, 30 min
Excerpt: colorimetric sulfide formation, Michaelis-Menten fit on GrBSAS2

[4] = substrate: N[C@@H](CS)C(=O)O; type: biochemical, Zygaena filipendulae; conditions: 6 mM KCN, 20 µM pyridoxal-5'-phosphate, Tris-HCl pH 8.5, 31 °C, 10 min
Excerpt: colorimetric sulfide formation, Michaelis-Menten fit on ZfBSAS2

[5] = substrate: N[C@@H](CS)C(=O)O; type: biochemical, Spodoptera littoralis; conditions: 6 mM KCN, 20 µM pyridoxal-5'-phosphate, Tris-HCl pH 8.5, 31 °C, 10 min
Excerpt: colorimetric sulfide formation, Michaelis-Menten fit on SlBSAS2a

[6] = substrate: N[C@@H](CS)C(=O)O; type: biochemical, Spodoptera littoralis; conditions: 6 mM KCN, 20 µM pyridoxal-5'-phosphate, Tris-HCl pH 8.5, 31 °C, 10 min; remark: listed apart in the source
Excerpt: colorimetric sulfide formation, Michaelis-Menten fit on SlBSAS2b

[7] = substrate: N[C@@H](CS)C(=O)O; type: biochemical, Plutella xylostella; conditions: 6 mM KCN, 20 µM pyridoxal-5'-phosphate, Tris-HCl pH 8.5, 31 °C, 10 min
Excerpt: colorimetric sulfide formation, Michaelis-Menten fit on PxBSAS2

[8] = substrate: N[C@@H](CS)C(=O)O; type: biochemical, Anthocharis cardamines; conditions: 6 mM KCN, 20 µM pyridoxal-5'-phosphate, Tris-HCl pH 8.5, 31 °C, 10 min
Excerpt: colorimetric sulfide formation, Michaelis-Menten fit on AcaBSAS1

[9] = substrate: N[C@@H](CS)C(=O)O; type: biochemical, Anthocharis cardamines; conditions: 6 mM KCN, 20 µM pyridoxal-5'-phosphate, Tris-HCl pH 8.5, 31 °C, 10 min; remark: listed apart in the source
Excerpt: colorimetric sulfide formation, Michaelis-Menten fit on AcaBSAS2

[10] = substrate: N[C@@H](CS)C(=O)O; type: biochemical, Anthocharis cardamines; conditions: 6 mM KCN, 20 µM pyridoxal-5'-phosphate, Tris-HCl pH 8.5, 31 °C, 10 min; remark: listed apart in the source
Excerpt: colorimetric sulfide formation, Michaelis-Menten fit on AcaBSAS3

[11] = substrate: N[C@@H](CS)C(=O)O; type: biochemical, Aporia crataegi; conditions: 6 mM KCN, 20 µM pyridoxal-5'-phosphate, Tris-HCl pH 8.5, 31 °C, 10 min
Excerpt: colorimetric sulfide formation, Michaelis-Menten fit on AcrBSAS1

[12] = substrate: N[C@@H](CS)C(=O)O; type: biochemical, Aporia crataegi; conditions: 6 mM KCN, 20 µM pyridoxal-5'-phosphate, Tris-HCl pH 8.5, 31 °C, 10 min; remark: listed apart in the source
Excerpt: colorimetric sulfide formation, Michaelis-Menten fit on AcrBSAS2

B1: CcBSAS2 (Colias croceus) (protein)
chain: MAKVNGIQNEIKESALDLIGNTPIVALDRLHPGPGRILAKCEFMNPGASIKCRSSLHMINKAIEKGLLKPGQSVLEVTSGNQGCGLAVVCSVMGHPLTVTMSMGNSAQRAIHMEALGAKCVRVPQVEGTYGNVTLADVKAAEKEGLRLAEEIGAYYVNQFNNEDNANSHYCTTGPEIWRQTGHRVDAFVATVGTAGTFTGSSRFLKEKNPNIQCYVVEPEGSQPIRGCAITKPLHLLQGSGYGCVPNLFNFETMDGTLSVTDEEASKYMKLIGEKEGLYVGYTSGANVAAAVKLLNSGTLPEDAWVVTLLNDSGLKYTPVPESLSGNSNNANSD
notes: N-terminal Strep-tag, E. coli BL21(DE3) pLysS; Strep-Tactin purified
Km [1]: 0.75 (±0.06) mM
Vmax [1]: 1.04 µmol/min/mg

B2: CcBSAS3 (Colias croceus) (protein)
chain: MTSSTNFPTDIKSSALELIGNTPLVALDRLHPGPGRILAKCEFMNPGASIKCRSSLHMIQKARERGDLKPGDPVIEVTSGNQGCGLAVVCAVLGHPLTLTMSKGNSVQRAIHMEALGAKCIRYPQVEGTYGNITYADVSIPIEAAVTLAEETGAYFVQQLCNEDNSAAHYEATGPEIWRQTGHRVDGFVTAVGTSGTFSGVSKFLKEQNPEILCCVVEPAGSEPLKGCPIVKPKHLLQGSSYGIVPNLFKPEFMDESISVTDEETEHYKDLIGKKEGLYVGYTSGANVAAAVKLLKSGKLPKDAWVVTVLCDSGLKYTPVPESLIN
notes: as for B1
Km [2]: 1.50 (±0.08) mM
Vmax [2]: 0.43 µmol/min/mg

B3: GrBSAS2 (Gonepteryx rhamni) (protein)
chain: MAKVNGIHSEIKESALDLIGNTPIVALDRLHPGPGRILAKCEFMNPGASIKCRSSLHMIQVAREKGLLKPGQPVLEVTSGNQGCGLAVVCSVMGHPLTVTMSKGNSVQRAIHMEALGAKCVRVPQVEGTYGNVTLADVKAAEQEGLRIAEETGAYYVNQFSNDDNANSHYCTTGPEIWRQTGHRVDAFVATVGTAGTFAGSSAYLKEKNPKIQCYVVEPEGSQPIRGCPITKPLHLLQGSGYGCIPNSFKFDTMDGTLSVTDEEATRYKNLIGEKEGLYVGYTSGANIAAAVKLLNSGKLPEDAWVVTLLNDSGLKYTPVPESLT
notes: as for B1
Km [3]: 0.37 (±0.00) mM
Vmax [3]: 0.24 µmol/min/mg

B4: ZfBSAS2 (Zygaena filipendulae) (protein)
chain: MSPPVLQHHDEIKSSALELIGNTPIVALDRLYTGPGRILAKCEFMNPGASIKCRSSLYMIQKALDEKLLKPGEPVLEVTSGNQGCGLAVVCAVLQHPLTLTMSKGNSAQRAVHMAALGAKCIRVPQVEGTYGNVTLADVKAAEAEGLRIVEKTGAYYVNQFNNEANTLAHYETTGPEIWRQTGGRVDAFVATVGTAGTFTGTSKYLKEKNPELKAYVVEPQGSEPIKQLPITKPLHVLQGSGYGCIPNLFNYSTMNDTISVTDEESKHYKKLLGTKEGLYVGYTSGANVAAAVKLLESGTLPDDAWVVTTLNDSGLKYSPTPDEIELSD
notes: as for B1
Km [4]: 0.74 (±0.04) mM
Vmax [4]: 2.99 µmol/min/mg

B5: SlBSAS2a (Spodoptera littoralis) (protein)
chain: MAPIEKDEQPKYLEGDIKASALELIGNTPLVALDRLYTGPGRILAKCEFMNPGASIKCRSSLSMINRAIASGELKPGEPVVEITSGNQGCGLAVVCAVLGHPLTLAMSKGSSAQRALHMEALGAKCVRVDQVEGTYGNVTYADVKAVEEVGMKIVEEQNAYFVNQFHNEANADAHYKSTGPEIWKQTGHHVDAFVATVGTSGTFAGTSRYLKEQNPDIKTYVVEPAGAEAIAGCPITKPLHLLQGSGYGWIPDLFKFEHMDGTLSVTDEEAVKYMKLVGEKEGLYVGYTSGANVAAAVKLLESGLIPEDAWVVTLLNDTGLKYTPVPEELFK
notes: as for B1
Km [5]: 0.60 (±0.01) mM
Vmax [5]: 1.44 µmol/min/mg

B6: SlBSAS2b (Spodoptera littoralis) (protein)
chain: MAPVEKNLKDEQPKYLKGDIKASALELIGNTPMVALDRLYSGPGRILAKCEFMNPGASIKCRSSLSMINRAIASGELKPGEPVVEITSGNQGCGLAVVCAVLGHPLTLAMSKGNSVQRALHMEALGAKVVRVDQVKGTYGNVTYADVEVVREVCDKLVKDQNAYFVNQFSNEANADAHYESTGPEIWQQTGHHVDAFVAAVGTAGTFMGTSRYLKEQNPNIKAYVVEPAGAEAIAGCEVTKPLHLLQGSGYGLIPDLLKYEFMDGSLSVTDEEAVKYMKLIGEKEGLYVGYTSGANVAAAIKLLESGLVPEDAWVVTVLADTGLKYTPVPEELMK
notes: as for B1
Km [6]: 1.07 (±0.03) mM
Vmax [6]: 11.6 µmol/min/mg

B7: PxBSAS2 (Plutella xylostella) (protein)
chain: MSTIDGVIDGVHNEVKASALELIGNTPLVALDRLHPGPGRLLVKCEFMNPGASLKDRSSLHMIQDARAEGRLAPGAPVVEITSGNQGCGLAVVCAVLGHPLTLTMSAGNSVQRALHMEALGARCVRVPQVEGRYGSVTFADVEVCEKEGHKIVEETGAFLVNQFHNPSNSLSHYKMMGPEIWRQTGGRVDGFVATMGTGGVFTGTSRFLKEQNKDVKTYVVEPAGAEVIKGDAITKPLHLLQGSGYGYVPSLFDRSLLDGTLAVTDEETLEYRRLIGEKEGLFVGYTSAANVAAAARLLRSGQLPPDAWVVTILCDTGLKYC
notes: as for B1
Km [7]: 0.52 (±0.04) mM
Vmax [7]: 3.72 µmol/min/mg

B8: AcaBSAS1 (Anthocharis cardamines) (protein)
chain: MGQACEKQTDIRASAIELIGNTPLVALDRLHPGPGRILAKCEFMNPGGSIKCRASLHMIQKARLRGTLKPGDPVVEATSGNQGCGLAVACAVLGHPLTLTMSKGNTVQRAIHMEALGAKCIRVPQVEGTYGNVTNADLMAAKDEAISFHEKTGAFFVKQFVNEDNVEAHYTTTGPEIWYQTGNRVDAFVTAVGTSGTFMGVSKYLKKQNPKIRCYVVEPEGCEPIKGKPITKASNTLQGSSYGVIPDLFKFEYMNETITVTDEEAEEYRDLIGSKEGLYVGYTSGANVCAAVKLLKSGKLPKNAWVVTILFDTGLKYTPVPESLM
notes: as for B1
Km [8]: 0.41 (±0.01) mM
Vmax [8]: 23.8 µmol/min/mg

B9: AcaBSAS2 (Anthocharis cardamines) (protein)
chain: MTKENGIPNEIKSSALDLIGETPLLALDRLHPGPGRILVKCEFNNPGASIKCRSAMHMIQEARAKGELKPGQPVLEVTSGNQGVGLAIVCAIYGHPLTATMSKGNSVQRAVHMEALGAKCIRVPQVEGTYGNVTINDVKAAEEEGLKIAKETGAYYVNQFNNDDNANSHYLTTGPEIWRQSGHHVDAFIATVGTAGTFAGTSRYLKEKNPDIQCYVVEPEGSQPIRGCEITKPLHLLQGSGYGCIPNLFKFETMDGTLSVTDEEAVRYKNLVGEKEGLYVGYTSGANVAAAVKLLKSGKLPEDAWVVTPLNDSGLKYTPVPDSLT
notes: as for B1
Km [9]: 0.44 (±0.01) mM
Vmax [9]: 1.76 µmol/min/mg

B10: AcaBSAS3 (Anthocharis cardamines) (protein)
chain: MSDSNGIPNEIKASALDLIGNTPLVALDRLHPGPGRILAKCEFMNPGGSIKCRSSLHMIQKARERGELKPGGSVVEVTSGNQGCGLAVVCAVLGHDLTVTMSKGNSIQRVIHMEALGAKCIRYPLVQGTYGNVTFADVEEALEAATNMSEESGAFFVKQFCNLENEEAHYVTTGPEIWRQTGHRVDAFVTAVGTSGTFSGVSTFLKEQNPDVKCFVVEPEGSQPLKGCPITKPLHLLQGASYGIIPDLFKPDLMEDSISVTDKEAVHYKDLIGTKEGLFVGYTSGANVAAAVKLLNSGKLPKDAWVVTTLCDTGLKYTPVPESLIE
notes: as for B1
Km [10]: 0.96 (±0.04) mM
Vmax [10]: 1.41 µmol/min/mg

B11: AcrBSAS1 (Aporia crataegi) (protein)
chain: MGQTCEKQTDIRSSALELIGNTPLVALDRLYPGPGRLLAKCESMNPGGSIKDRASYHMIKKARLRGELKPGDPVIEATSGNQGCGLAVSCAVLGHPLTLTMSKGNTVQRAIHMEALGATCVRVPQVEGTYGHVTNADLMVVKKEAIVLQQKTGAFFVNQFLNEDNVEAHYISTGPEIWHQTAGRVNAFVTAVGTSGTFMGVSRFLKKQNPKIQCYVVEPEGCEPIKGKPIIKASNTLQGSSYGLVPDLFKYEVMSETITVTDEEAQEYMHLIGKKEGLYVGYTSGANVCAAVKLLKSGKLSKKAWVVTILFDTGLKYTPVPSLM
notes: as for B1
Km [11]: 0.26 (±0.00) mM
Vmax [11]: 14 µmol/min/mg

B12: AcrBSAS2 (Aporia crataegi) (protein)
chain: MAKVNGIKNEIKTSALELIGETPLLALDRLHPGPGRILVKCEFMNPGASIKCRSSLHMIQEARAKGLLKPGQPVLEVTSGNQGCGLAIVCAIYGHPLTVTMSKGNSLQRAIHMEALGAKCVRVPQVEGTYGNVTVNDVNAAEEEGLKIVKETGAYYVNQFNNEDNANSHYLTTGPEIWRQSGHNVDAFVATVGTAGTFAGTSRYLKEKNPNIKCFVVEPEGSQPIKGCPITKPLHLLQGSGYGCIPNLFNFDTMDGTLSVTDEEAVEYKNLIGEKEGLFVGFTSGANVAAAVKLLKSGLIPENSCLVTILNDTGLKYTPVAESLI
notes: as for B1
Km [12]: 0.58 (±0.04) mM
Vmax [12]: 2.09 µmol/min/mg
